Measurements from publication PMC11079029, “Intramolecular autoinhibition regulates the selectivity of PRPF40A tandem WW domains for proline-rich motifs” (Nature Communications, 2024).

Test system: GFP-tagged PRPF40A-Nter-MUT
Assay: SILAC GFP-immunoprecipitation with quantitative mass spectrometry, mutant construct
Type: binding, human (Hela cells)
Conditions: quantitative MS, Hela cells, protein by gene name
Summary of the method: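 GFP-tagged PRPF40A N-terminal region (isoform 2, residues 1–221) with PPVP/PALPP motifs mutated to alanines, transiently expressed 24 h in SILAC-labelled HeLa cells alongside GFP control. Lysates (2.5 mg) pulled down on GFP-nanobody beads 1 h at 4 °C; pooled eluates trypsin-digested and quantified by LC-MS/MS on Orbitrap.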

| Molecule | Immunoprecipitation enrichment MUT vs WT, log2 FC |
| --- | --- |
| SF1 (protein, UniProt Q15637 2-639, looked up) Splicing factor 1: ATGANATPLDFPSKKRKRSRWNQDTMEQKTVIPGMPTVIPPGLTREQERAYIVQLQIEDLTRKLRTGDLGIPPNPEDRSPSPEPIYNSEGKRLNTREFRTRKKLEEERHNLITEMVALNPDFKPPADYKPPATRVSDKVMIPQDEYPEINFVGLLIGPRGNTLKNIEKECNAKIMIRGKGSVKEGKVGRKDGQMLPGEDEPLHALVTANTMENVKKAVEQIRNILKQGIETPEDQNDLRKMQLRELARLNGTLREDDNRILRPWQSSETRSITNTTVCTKCGGAGHIASDCKFQRPGDPQSAQDKARMDKEYLSLMAELGEAPVPASVGSTSGPATTPLASAPRPAAPANNPPPPSLMSTTQSRPPWMNSGPSESRPYHGMHGGGPGGPGGGPHSFPHPLPSLTGGHGGHPMQHNPNGPPPPWMQPPPPPMNQGPHPPGHHGPPPMDQYLGSTPVGSGVYRLHQGKGMMPPPPMGMMPPPPPPPSGQPPPPPSGPLPPWQQQQQQPPPPPPPSSSMASSTPLPWQQNTTTTTTSAGTGSIPPWQQQQAAAAASPGAPQMQGNPTMVPLPPGVQPPLPPGAPPPPPPPPPGSAGMMYAPPPPPPPPMDPSNFVTMMGMGVAGMPPFGMPPAPPPPPPQN | 0.9625 |
| RBM17 (protein, UniProt Q96I25 2-401, looked up) Splicing factor 45: SLYDDLGVETSDSKTEGWSKNFKLLQSQLQVKKAALTQAKSQRTKQSTVLAPVIDLKRGGSSDDRQIVDTPPHVAAGLKDPVPSGFSAGEVLIPLADEYDPMFPNDYEKVVKRQREERQRQRELERQKEIEEREKRRKDRHEASGFARRPDPDSDEDEDYERERRKRSMGGAAIAPPTSLVEKDKELPRDFPYEEDSRPRSQSSKAAIPPPVYEEQDRPRSPTGPSNSFLANMGGTVAHKIMQKYGFREGQGLGKHEQGLSTALSVEKTSKRGGKIIVGDATEKDASKKSDSNPLTEILKCPTKVVLLRNMVGAGEVDEDLEVETKEECEKYGKVGKCVIFEIPGAPDDEAVRIFLEFERVESAIKAVVDLNGRYFGGRVVKACFYNLDKFRVLDLAEQV | 1.293 |
| ATAD3A (protein, UniProt Q9NVI7 2-586, looked up) ATPase family AAA …: SWLFGINKGPKGEGAGPPPPLPPAQPGAEGGGDRGLGDRPAPKDKWSNFDPTGLERAAKAARELEHSRYAKDALNLAQMQEQTLQLEQQSKLKEYEAAVEQLKSEQIRAQAEERRKTLSEETRQHQARAQYQDKLARQRYEDQLKQQQLLNEENLRKQEESVQKQEAMRRATVEREMELRHKNEMLRVEAEARARAKAERENADIIREQIRLKAAEHRQTVLESIRTAGTLFGEGFRAFVTDWDKVTATVAGLTLLAVGVYSAKNATLVAGRFIEARLGKPSLVRETSRITVLEALRHPIQVSRRLLSRPQDALEGVVLSPSLEARVRDIAIATRNTKKNRSLYRNILMYGPPGTGKTLFAKKLALHSGMDYAIMTGGDVAPMGREGVTAMHKLFDWANTSRRGLLLFVDEADAFLRKRATEKISEDLRATLNAFLYRTGQHSNKFMLVLASNQPEQFDWAINDRINEMVHFDLPGQEERERLVRMYFDKYVLKPATEGKQRLKLAQFDYGRKCSEVARLTEGMSGREIAQLAVSWQATAYASEDGVLTEAMMDTRVQDAVQQHQQKMCWLKAEGPGRGDEPSPS | 1.016 |
| FAM120A (protein, UniProt Q9NZB2 1-1118, looked up) Constitutive coactivator of …: MGVQGFQDYIEKHCPSAVVPVELQKLARGSLVGGGRQRPPQTPLRLLVDADNCLHRLYGGFYTDWVSGGQWNHMLGYLAALAKACFGGNIELFVFFNGALEKARLHEWVKRQGNERQTAQQIVSHVQNKGTPPPKVWFLPPVCMAHCIRLALIRFHVKVAQSIEDHHQEVIGFCRENGFHGLVAYDSDYALCNIPYYFSAHALKLSRNGKSLTTSQYLMHEVAKQLDLNPNRFPIFAALLGNHILPDEDLASFHWSLLGPEHPLASLKVRAHQLVLPPCDVVIKAVADYVRNIQDTSDLDAIAKDVFQHSQSRTDDKVIRFKRAIGYYSATSKPMSFHPPHYLAARPGPFGMPGMVPPHVPPQMLNIPQTSLQAKPVAPQVPSPGGAPGQGPYPYSLSEPAPLTLDTSGKNLTEQNSYSNIPHEGKHTPLYERSSPINPAQSGSPNHVDSAYFPGSSTSSSSDNDEGSGGATNHISGNKIGWEKTGSHSEPQARGDPGDQTKAEGSSTASSGSQLAEGKGSQMGTVQPIPCLLSMPTRNHMDITTPPLPPVAPEVLRVAEHRHKKGLMYPYIFHVLTKGEIKIAVSIEDEANKDLPPAALLYRPVRQYVYGVLFSLAESRKKTERLAFRKNRLPPEFSPVIIKEWAAYKGKSPQTPELVEALAFREWTCPNLKRLWLGKAVEDKNRRMRAFLACMRSDTPAMLNPANVPTHLMVLCCVLRYMVQWPGARILRRQELDAFLAQALSPKLYEPDQLQELKIENLDPRGIQLSALFMSGVDMALFANDACGQPIPWEHCCPWMYFDGKLFQSKLLKASREKTPLIDLCDGQADQAAKVEKMRQSVLEGLSFSRQSHTLPFPPPPALPFYPASAYPRHFGPVPPSQGRGRGFAGVCGFGGPYGETVATGPYRAFRVAAASGHCGAFSGSDSSRTSKSQGGVQPIPSQGGKLEIAGTVVGHWAGSRRGRGGRGPFPLQVVSVGGPARGRPRGVISTPVIRTFGRGGRYYGRGYKNQAAIQGRPPYAASAEEVAKELKSKSGESKSSAMSSDGSLAENGVMAEEKPAPQMNGSTGDARAPSHSESALNNDSKTCNTNPHLNALSTDSACRREAALEAAVLNKEE | 1.247 |
| LARP7 (protein, UniProt Q4G0J3 1-582, looked up) La-related protein 7: METESGNQEKVMEEESTEKKKEVEKKKRSRVKQVLADIAKQVDFWFGDANLHKDRFLREQIEKSRDGYVDISLLVSFNKMKKLTTDGKLIARALRSSAVVELDLEGTRIRRKKPLGERPKDEDERTVYVELLPKNVNHSWIERVFGKCGNVVYISIPHYKSTGDPKGFAFVEFETKEQAAKAIEFLNNPPEEAPRKPGIFPKTVKNKPIPALRVVEEKKKKKKKKGRMKKEDNIQAKEENMDTSNTSISKMKRSRPTSEGSDIESTEPQKQCSKKKKKRDRVEASSLPEVRTGKRKRSSSEDAESLAPRSKVKKIIQKDIIKEASEASKENRDIEISTEEEKDTGDLKDSSLLKTKRKHKKKHKERHKMGEEVIPLRVLSKSEWMDLKKEYLALQKASMASLKKTISQIKSESEMETDSGVPQNTGMKNEKTANREECRTQEKVNATGPQFVSGVIVKIISTEPLPGRKQVRDTLAAISEVLYVDLLEGDTECHARFKTPEDAQAVINAYTEINKKHCWKLEILSGDHEQRYWQKILVDRQAKLNQPREKKRGTEKLITKAEKIRLAKTQQASKHIRFSEYD | 1.221 |
| NKRF (protein, UniProt O15226 1-690, looked up) NF-kappa-B-repressing factor: MEKILQMAEGIDIGEMPSYDLVLSKPSKGQKRHLSTCDGQNPPKKQAGSKFHARPRFEPVHFVASSSKDERQEDPYGPQTKEVNEQTHFASMPRDIYQDYTQDSFSIQDGNSQYCDSSGFILTKDQPVTANMYFDSGNPAPSTTSQQANSQSTPEPSPSQTFPESVVAEKQYFIEKLTATIWKNLSNPEMTSGSDKINYTYMLTRCIQACKTNPEYIYAPLKEIPPADIPKNKKLLTDGYACEVRCQNIYLTTGYAGSKNGSRDRATELAVKLLQKRIEVRVVRRKFKHTFGEDLVVCQIGMSSYEFPPALKPPEDLVVLGKDASGQPIFNASAKHWTNFVITENANDAIGILNNSASFNKMSIEYKYEMMPNRTWRCRVFLQDHCLAEGYGTKKTSKHAAADEALKILQKTQPTYPSVKSSQCHTGSSPRGSGKKKDIKDLVVYENSSNPVCTLNDTAQFNRMTVEYVYERMTGLRWKCKVILESEVIAEAVGVKKTVKYEAAGEAVKTLKKTQPTVINNLKKGAVEDVISRNEIQGRSAEEAYKQQIKEDNIGNQLLRKMGWTGGGLGKSGEGIREPISVKEQHKREGLGLDVERVNKIAKRDIEQIIRNYARSESHTDLTFSRELTNDERKQIHQIAQKYGLKSKSHGVGHDRYLVVGRKRRKEDLLDQLKQEGQVGHYELVMPQAN | 1.452 |
